Data: patent US20220306746A1 (CHINA MEDICAL UNIVERSITY HOSPITAL, published 2022)
Numbering of substitutions follows the chain as printed.

B1: anti-PD-L1 nanobody clone #1 (VHH)
VHH: HVQLVESGGGLVQPGGSLRISCAASGFTFSSRAMSWVRQAPGKGLEWVSTINSDGSNTYYSDSVKDRFTISRDNAINTLYLQLNSLKTEDTAMYYCSRCPDIYCGGQYTYRGQGTQVTVSS
notes: Labelled with FITC for flow cytometry; also called PD-L1 nb
B2: anti-PD-L1 nanobody clone #67 (VHH)
VHH: B1 VHH with H1Q, I51V

Assays:
[1] = target: T1, programmed cell death ligand 1 (PD-L1) on cells (UniProt Q9NZQ7 19-290, limits assumed); experiment: flow cytometry on H1975 cells, FITC-labelled nanobody 1 ng/ml [b]
T1 construct: whole, on cells; H1975, A549 and MDA-MB-231 are human tumour cell lines; also called PD-L1 aAPC/CHO-K1 cells
T1 sequence (Q9NZQ7 19-290 limits assumed): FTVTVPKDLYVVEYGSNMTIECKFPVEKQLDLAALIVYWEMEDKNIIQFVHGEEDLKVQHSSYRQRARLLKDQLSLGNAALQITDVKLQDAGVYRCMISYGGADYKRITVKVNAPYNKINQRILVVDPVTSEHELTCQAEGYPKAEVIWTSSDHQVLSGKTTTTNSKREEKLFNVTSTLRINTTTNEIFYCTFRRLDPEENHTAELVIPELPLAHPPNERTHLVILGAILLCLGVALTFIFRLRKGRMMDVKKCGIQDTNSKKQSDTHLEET
Method: In this example, the procedures of flow cytometric analysis of the anti-PD-L1 nanobody are as follows. The anti-PD-L1 nanobody (1 ng/ml) was pre-stained with FITC fluorescein by Fastlink Fluorescein Labeling Kit (Abnova), the procedures were performed according to the manual instructions. […] After washing with PBS, the cells were analyzed by flow cytometry using FL1 channel.

[2] = target: T1, programmed cell death ligand 1 (PD-L1) …; experiment: cell-based or functional assay

Binder	binding result [1]	EC50 (read off the curve) [2] [µg/mL]
B1	binds	–
B2	–	~3
